Source: the supplement of paper PMC10724198

What was measured:
[1] = test system: Saccharomyces cerevisiae; experiment: protein stability index of tFT-peptide fusion in wild type (PSI (0-1 scale)); higher = more stable (slower turnover); conditions: genetic background: wild type
Description: (§1)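 MPS profiling in S. cerevisiae of two library types built from selected 12-aa C-degron peptides (IN1, IN2, LN1, LN3, VN2, R1-R5, W1-W3, Atg1 and Rpa12 C-termini): saturation mutagenesis libraries and C-terminal +1 capping libraries (13 aa). Each peptide is fused to the C-terminus of a sfGFP-mCherry timer, after a GGGS linker. Cells are FACS-sorted into 8 mCherry/sfGFP bins and sequenced. PSI runs from 0 (unstable) to 1 (stable), measured once in wild type and in the das1Δ or doa10Δ background.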

[2] = test system: Saccharomyces cerevisiae; experiment: protein stability index of tFT-peptide fusion in deletion strain of DAS1 (PSI (0-1 scale)); higher = more stable (slower turnover)
Description: as §1
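For protein stability index of tFT-peptide fusion in deletion strain of DAS1 in this document: PSI is a weighted mean of each variant's read distribution over the sorted stability bins, computed only for variants having over 10 reads in total.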
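For protein stability index of tFT-peptide fusion in wild type in this document: PSI derived as read-weighted mean over the 8 sorting bins, only variants exceeding 10 total reads kept, mCherry placed adjacent to the peptide and sfGFP distal.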

| Sequence | protein stability index [1] | protein stability index [2] |
| --- | --- | --- |
| LRWRVGLWRGAS | 0.0917 | 0.682 |
| KKHKKGQKQKIL | 0.222 | 0.595 |
| CWSCGYKFRTNN | 0.167 | 0.714 |
| FSMRWTFRYWRN | 0.653 | 0.531 |
| VRGAVPGWRLVG | 0.149 | 0.678 |
| KTSCGYKFRTNN | 0.225 | 0.679 |
| QDKRNHLIKLLN | 0.0816 | 0.592 |
| VRGAVGGYRLVG | 0.658 | 0.681 |
| PALAASFWRVVG | 0.178 | 0.687 |
| FSMRWTFRIWVN | 0.0523 | 0.288 |
| RTIQPLPVQFLN | 0.101 | 0.629 |
| SRWRVGLWRGAS | 0.458 | 0.672 |
| HKILRQKMNHQN | 0.168 | 0.683 |
| ARWRVKLWRGAS | 0.357 | 0.684 |
| PDKRNHHIKLLN | 0.111 | 0.665 |
| CTSCTYKFRTNN | 0.238 | 0.648 |
| TSMRWTFRYWVN | 0.0899 | 0.696 |
| WTSCGYKFRTNN | 0.173 | 0.699 |
| ARWRMGLWRGAS | 0.605 | 0.689 |
| KKHAKGQKQKIN | 0.121 | 0.565 |
| LVVYLSCNACIN | 0.0647 | 0.0655 |
| LKILRQWMNHQN | 0.184 | 0.693 |
| ARLRVGLWRGAS | 0.581 | 0.69 |

| Sequence | protein stability index [1] | protein stability index [2] |
| --- | --- | --- |
| LKILRQKMNWQN | 0.286 | 0.661 |
| PSLAISFWRVVG | 0.127 | 0.633 |
| LKILDQKMNHQN | 0.648 | 0.691 |
| PDKRNHLIVLLN | 0.148 | 0.637 |
| KKHKKQQKQKIN | 0.0595 | 0.59 |
| LKILRQLMNHQN | 0.219 | 0.665 |
| LVYYLSCVACIN | 0.0126 | 0.0331 |
| PSLAASFWRRVG | 0.128 | 0.69 |
| RLIPPLPVQFLN | 0.0667 | 0.576 |
| VRGAVGGWRHVG | 0.137 | 0.691 |
| PSLAASTWRVVG | 0.132 | 0.68 |
| LKILRQKMNHQC | 0.184 | 0.635 |
| ARWRVGLWAGAS | 0.599 | 0.627 |
| PSLAASGWRVVG | 0.193 | 0.679 |
| RLIQPLPWQFLN | 0.0707 | 0.699 |
| CTSCGQKFRTNN | 0.448 | 0.686 |
| CTSCGYEFRTNN | 0.64 | 0.675 |
| PDKRNHLIILLN | 0.107 | 0.66 |
| CTSCGYHFRTNN | 0.258 | 0.695 |
| CTSCEYKFRTNN | 0.457 | 0.684 |
| ARWNVGLWRGAS | 0.322 | 0.662 |
| CTVCGYKFRTNN | 0.28 | 0.704 |
| CTSCGYKFRTNNR | 0.707 | 0.705 |
